No end group written: not given here.
Target: Acetylcholine receptor proteins (AchR) (Homo sapiens, UniProt P02708)
Assay: not given
Assay type: binding
Conditions: not given
Experimental: Spep-1 to Spep-11 selected in Example 1 were synthesized, and the AchR binding affinity was compared thereamong using a surface plasmon resonance (SPR) analyzer (Biacore3000, Biacore A, Sweden). […]
The treatment concentrations of Spep-2 were 0.12 to 1 μM, and the dissociation constant was compared while Synake was used as a positive control.

Acetylcholine receptor proteins (AchR), sequence (P02708 21-457): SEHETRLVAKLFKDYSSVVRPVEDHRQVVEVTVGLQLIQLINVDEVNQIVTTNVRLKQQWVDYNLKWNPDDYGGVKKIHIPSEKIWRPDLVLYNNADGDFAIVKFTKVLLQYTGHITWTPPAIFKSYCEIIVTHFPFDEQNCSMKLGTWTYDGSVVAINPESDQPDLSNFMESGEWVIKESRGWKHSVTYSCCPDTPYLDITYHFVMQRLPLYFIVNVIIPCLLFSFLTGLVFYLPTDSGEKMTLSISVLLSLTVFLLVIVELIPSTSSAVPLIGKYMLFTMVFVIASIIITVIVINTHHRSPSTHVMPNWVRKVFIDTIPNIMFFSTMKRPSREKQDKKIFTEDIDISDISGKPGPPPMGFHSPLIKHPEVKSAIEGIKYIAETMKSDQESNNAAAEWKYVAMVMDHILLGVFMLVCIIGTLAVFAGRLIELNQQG

| Substance | binding affinity reduced compared with Spep-2 (11-mer) |
| --- | --- |
| RKSLLR [Spep-2-ND5, RKSLLR] | 48 times |

Same assay, conditions: SPR

| Substance | AchR binding affinity compared with Spep-2 |
| --- | --- |
| GRKSLLR [Spep-2-ND4] | significantly reduced binding affinity |
| RKSLLR [Spep-2-ND5, RKSLLR] | significantly reduced binding affinity |

Same assay, conditions: SPR, 10 μM peptides, compared with Synake

| Substance | AchR binding affinity |
| --- | --- |
| WTWKGRDKLQM [Spep-4] | high AchR binding affinity compared with Synake |
| WTWKGNKQVKF [Spep-10] | high AchR binding affinity compared with Synake |

Same assay, conditions: SPR, peptides 3 μM

| Substance | AchR binding affinity (resonance units: Ru) among representative peptides |
| --- | --- |
| L3-37: 14-mer optimized peptide of the L3 library (Table 12, not shown here) (SNVKRKRGRCKPYR; AchR binding peptide) [Peptide L3-37] | highest binding affinity |
| L3-28: 14-mer optimized peptide of the L3 library (Table 12, not shown here) (PNGKVRKRIRRRYF; AchR binding peptide) [Peptide L3-28] | highest binding affinity |

Target: T1, AchR (Homo sapiens, UniProt P02708)
Assay: ELISA of screened peptide phages on AchR versus streptavidin (OD450)
Assay type: binding
Conditions: ELISA of selected 11-mer (L2) peptide phages on AchR, absorbance at 450 nm; Spep-2 positive control
Summary of the method: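 Phage supernatants from 4th–5th round plaques, in 2% BSA, applied 1 h at 30 °C to wells coated with 5 μg/ml AchR or streptavidin. Bound phage detected with HRP anti-M13 and TMB at OD450; value given as AchR/streptavidin signal ratio.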
Target sequence in this assay (P02708 21-457): as above

| Substance | OD |
| --- | --- |
| L2-89 (PPFKFRKPLGR; AchR binding peptide) [Peptide L2-89] | 0.749 |
| L2-18 (LQSRSKKYSVK; AchR binding peptide) [Peptide L2-18] | 0.753 |
| L2-67 (KTGRSKRHRWR; AchR binding peptide) [Peptide L2-67] | 0.696 |
| L2-80 (FWDRVKRNPSK; AchR binding peptide) [Peptide L2-80] | 0.685 |
| L2-73 (PPFKFRKPLGR; AchR binding peptide) [Peptide L2-73] | 0.662 |
| L2-188 (CLWRLRKDNGR; AchR binding peptide) [Peptide L2-188] | 0.73 |
| L2-78 (HHNRMKKQYHR; AchR binding peptide) [Peptide L2-78] | 0.718 |
| L2-21 (MVMKWKRWNQR; AchR binding peptide) [Peptide L2-21] | 0.719 |
| L2-194 (HLEKHRRCEFK; AchR binding peptide) [Peptide L2-194] | 0.693 |
| L2-98 (LMLRGKRLTTK; AchR binding peptide) [Peptide L2-98] | 0.626 |
| L2-41 (AEVKDKKAYYK; AchR binding peptide) [Peptide L2-41] | 0.568 |
| L2-63 (IDGKWRKICTR; AchR binding peptide) [Peptide L2-63] | 0.742 |
| L2-11 (GIPKYRRGCSR; AchR binding peptide) [Peptide L2-11] | 0.791 |
| L2-169 (HDPRHKKTPTK; AchR binding peptide) [Peptide L2-169] | 0.733 |
| L2-130 (GYDRARKGTLR; AchR binding peptide) [Peptide L2-130] | 0.64 |
| L2-4 (ECYRNRKAYCR; AchR binding peptide) [Peptide L2-4] | 0.757 |
| L2-17 (GLNRWRRCHHK; AchR binding peptide) [Peptide L2-17] | 0.72 |
| L2-7 (WQMKTKKEIWK; AchR binding peptide) [Peptide L2-7] | 0.753 |
| L2-54 (HHWRFKREMPR; AchR binding peptide) [Peptide L2-54] | 0.609 |
| L2-184 (MHQRERRNFVK; AchR binding peptide) [Peptide L2-184] | 0.736 |
| L2-105 (IEMKPRKFGVK; AchR binding peptide) [Peptide L2-105] | 0.488 |
| L2-45 (WIYRGRKDVAK; AchR binding peptide) [Peptide L2-45] | 0.584 |

Same assay, conditions: ELISA of selected 14-mer (L3) peptide phages on AchR, absorbance at 450 nm; Spep-2 positive control

| Substance | OD |
| --- | --- |
| L3-37: 14-mer optimized peptide of the L3 library (Table 12, not shown here) (SNVKRKRGRCKPYR; AchR binding peptide) [Peptide L3-37] | 0.69 |
| L3-28: 14-mer optimized peptide of the L3 library (Table 12, not shown here) (PNGKVRKRIRRRYF; AchR binding peptide) [Peptide L3-28] | 0.803 |
| L3-63 (CPWRNRKAMIKGII; AchR binding peptide) [Peptide L3-63] | 0.794 |
| L3-183 (NMARSRKNECKYIA; AchR binding peptide) [Peptide L3-183] | 0.768 |
| L3-15 (YEPRFKRPYGKWCH; AchR binding peptide) [Peptide L3-15] | 0.859 |
| L3-138 (TNQRPRRETAKTIE; AchR binding peptide) [Peptide L3-138] | 0.576 |
| L3-74 (IAIRPRKMTLKIHP; AchR binding peptide) [Peptide L3-74] | 0.726 |
| L3-135 (NDHRMRRSVDRGET; AchR binding peptide) [Peptide L3-135] | 0.69 |
| L3-155 (AWTRFRRFQCKGMS; AchR binding peptide) [Peptide L3-155] | 0.794 |
| L3-96 (EWHKHRREMVRWGP; AchR binding peptide) [Peptide L3-96] | 0.567 |
| L3-110 (AWAKYKKVQPKHHT; AchR binding peptide) [Peptide L3-110] | 0.538 |
| L3-87 (FLEKCRKFIIRVST; AchR binding peptide) [Peptide L3-87] | 0.743 |
| L3-2 (SFYKERKCQFRSGL; AchR binding peptide) [Peptide L3-2] | 0.841 |
| L3-36 (AFSRIKRGVLKLLS; AchR binding peptide) [Peptide L3-36] | 0.787 |
| L3-150 (YLSRTKRWLARYVE; AchR binding peptide) [Peptide L3-150] | 0.518 |
| L3-126 (YVDRWRRMQYKLSI; AchR binding peptide) [Peptide L3-126] | 0.542 |

| Substance | OD |
| --- | --- |
| L3-16 (DYLRSRKMEERFQE; AchR binding peptide) [Peptide L3-16] | 0.797 |
| L3-161 (MAAKWKKDGMKSHY; AchR binding peptide) [Peptide L3-161] | 0.733 |
| L3-120 (FLYKAKKALMRDSL; AchR binding peptide) [Peptide L3-120] | 0.887 |
| L3-44 (PPFRLRKPLWRPQR; AchR binding peptide) [Peptide L3-44] | 0.719 |
| L3-65 (CLEKLRKAVHRQRR; AchR binding peptide) [Peptide L3-65] | 0.731 |
| L3-23 (QYHKVRKLWFRVEP; AchR binding peptide) [Peptide L3-23] | 0.799 |
| L3-1 (ALGRTKRLHMRVHV; AchR binding peptide) [Peptide L3-1] | 0.853 |
| L3-3 (SGVRYRKWWIRSVV; AchR binding peptide) [Peptide L3-3] | 0.88 |
| L3-19 (YMKKKRKSLLRTSL; AchR binding peptide) [Peptide L3-19] | 0.796 |
| L3-78 (FITKSRRQQFRNQG; AchR binding peptide) [Peptide L3-78] | 0.712 |
| L3-20 (CCFKLKKAYNKGPF; AchR binding peptide) [Peptide L3-20] | 0.755 |
| L3-73 (WTCRMRKYQLRTSE; AchR binding peptide) [Peptide L3-73] | 0.771 |
| L3-32 (CATRGKKVFSKRTM; AchR binding peptide) [Peptide L3-32] | 0.845 |
| L3-101 (QPWRQKKFWCRCWG; AchR binding peptide) [Peptide L3-101] | 0.758 |
| L3-140 (EHCKWKKMFDKEGE; AchR binding peptide) [Peptide L3-140] | 0.607 |
| L3-104 (ASVRDRKMGYKSDG; AchR binding peptide) [Peptide L3-104] | 0.57 |

Same assay, conditions: phage ELISA, absorbance at 450 nm, 5 μg/ml AchR; 4th and 5th round biopanning phages

| Substance | OD |
| --- | --- |
| RLKKHCGK [Peptide L1-187] | 0.668 |
| RQKKPWVK [Peptide L1-31] | 0.604 |
| RQRRNDMK [Peptide L1-9] | 0.639 |
| KIKRDLYK [Peptide L1-90] | 0.439 |
| RSRRGIGK [Peptide L1-192] | 0.581 |
| KNKRWVFK [Peptide L1-141] | 0.505 |
| RGRKKCGK [Peptide L1-42] | 0.695 |
| RGKKQLSK [Peptide L1-121] | 0.354 |
| KHKKLNQR [Peptide L1-7] | 0.68 |
| RIRRHMYR [Peptide L1-83] | 0.621 |
| RAKKIMFR [Peptide L1-177] | 0.484 |
| KTRRSACR [Peptide L1-134] | 0.365 |
| RNKRMDGK [Peptide L1-157] | 0.585 |
| KFRKGPYR [Peptide L1-135] | 0.479 |
| RIKRDYCK [Peptide L1-164] | 0.616 |
| RVKRFVPK [Peptide L1-112] | 0.431 |
| KFKKHGVK [Peptide L1-21] | 0.65 |
| RGKKAVRK [Peptide L1-20] | 0.619 |
| KSKRPEGR [Peptide L1-122] | 0.352 |
| KSRKHCNR [Peptide L1-70] | 0.668 |
| RFKRMVWR [Peptide L1-99] | 0.543 |
| RAKKCYHK [Peptide L1-50] | 0.583 |
| REKRYMAR [Peptide L1-91] | 0.826 |
| RIRRAHDR [Peptide L1-165] | 0.644 |
| RQRKSMQR [Peptide L1-27] | 0.662 |
| KSRRMWGR [Peptide L1-183] | 0.605 |
| KMRRAQGR [Peptide L1-34] | 0.634 |
| RARKDAFK [Peptide L1-11] | 0.703 |
| RSKKSLYR [Peptide L1-53] | 0.78 |

Target: T1, AchR
Assay: cell-based
Assay type: cell-based
Design: endogenous in cells; host or cells: TE671
Conditions: nicotine 400 μM, peptide 2.5 μM
Target sequence in this assay (P02708 21-457): as above
Target sequence in this assay (Q07001 22-517, further chain): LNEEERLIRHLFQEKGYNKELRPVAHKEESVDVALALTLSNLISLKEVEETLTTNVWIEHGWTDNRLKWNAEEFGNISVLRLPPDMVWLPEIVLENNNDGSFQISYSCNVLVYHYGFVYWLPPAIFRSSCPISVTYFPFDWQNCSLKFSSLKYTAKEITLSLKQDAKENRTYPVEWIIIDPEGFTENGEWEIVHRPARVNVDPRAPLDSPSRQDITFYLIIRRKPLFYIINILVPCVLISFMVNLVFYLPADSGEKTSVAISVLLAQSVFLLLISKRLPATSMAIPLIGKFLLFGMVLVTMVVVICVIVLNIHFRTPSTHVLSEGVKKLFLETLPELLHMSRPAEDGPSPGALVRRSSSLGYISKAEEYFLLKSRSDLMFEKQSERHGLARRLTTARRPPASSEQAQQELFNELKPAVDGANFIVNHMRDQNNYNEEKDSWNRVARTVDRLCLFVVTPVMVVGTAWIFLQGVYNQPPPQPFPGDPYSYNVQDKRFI
Target sequence in this assay (P07510 23-517, further chain): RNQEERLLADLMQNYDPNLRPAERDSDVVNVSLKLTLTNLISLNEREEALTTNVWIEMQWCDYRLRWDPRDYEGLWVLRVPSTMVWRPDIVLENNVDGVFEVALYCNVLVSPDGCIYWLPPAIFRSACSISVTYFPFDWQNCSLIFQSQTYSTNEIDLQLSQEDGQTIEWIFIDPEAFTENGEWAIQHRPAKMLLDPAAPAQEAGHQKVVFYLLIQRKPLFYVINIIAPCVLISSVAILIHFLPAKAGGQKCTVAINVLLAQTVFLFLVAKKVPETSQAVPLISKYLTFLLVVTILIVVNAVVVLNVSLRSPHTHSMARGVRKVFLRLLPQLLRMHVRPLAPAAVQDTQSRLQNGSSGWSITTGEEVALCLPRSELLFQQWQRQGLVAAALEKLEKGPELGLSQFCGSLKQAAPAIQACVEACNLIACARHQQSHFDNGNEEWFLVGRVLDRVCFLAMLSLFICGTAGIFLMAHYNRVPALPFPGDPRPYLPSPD
Target sequence in this assay (P11230 24-501, further chain): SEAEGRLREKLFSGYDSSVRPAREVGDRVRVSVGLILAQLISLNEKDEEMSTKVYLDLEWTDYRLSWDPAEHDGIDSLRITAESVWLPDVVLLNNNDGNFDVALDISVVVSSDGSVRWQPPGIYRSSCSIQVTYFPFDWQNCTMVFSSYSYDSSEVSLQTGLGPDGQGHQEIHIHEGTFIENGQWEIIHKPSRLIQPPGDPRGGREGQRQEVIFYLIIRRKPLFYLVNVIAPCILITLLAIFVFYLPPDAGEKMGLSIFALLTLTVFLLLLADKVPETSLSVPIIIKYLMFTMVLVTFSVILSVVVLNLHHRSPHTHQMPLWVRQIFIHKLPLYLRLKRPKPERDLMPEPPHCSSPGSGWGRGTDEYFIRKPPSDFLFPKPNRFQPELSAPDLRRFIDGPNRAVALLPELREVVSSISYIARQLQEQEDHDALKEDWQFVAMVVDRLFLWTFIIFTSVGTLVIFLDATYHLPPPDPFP

| Substance | AchR inhibition |
| --- | --- |
| L3-28: 14-mer optimized peptide of the L3 library (Table 12, not shown here) (PNGKVRKRIRRRYF; AchR binding peptide) [Peptide L3-28] | could not inhibit |
